The text below walks through data of article PMC8915965.

Data set [1] in a line: expression in HeLaΔCD164 (SI Fig. S4). As to conditions: glycan lost; control: WT CD164.

Where two headings read alike, the source gives them in different places.

B1: CD164: N104Q hCD164PM (protein)
parent chain: MSRLSRSLLWAATCLGVLCVLSADKNTTQHPNVTTLAPISNVTSAPVTSLPLVTTPAPETCEGRNSCVSCFNVSVVNTTCFWIECKDESYCSHNSTVSDCQVGNTTDFCSVSTATPVPTANSTAKPTVQPSPSTTSKTVTTSGTTNNTVTPTSQPVRKSTFDAASFIGGIVLVLGVQAVIFFLYKFCKSKERNYHTL
For the protein B1, the “other: cell-cell membrane fusion” value (glycan lost) is “abolishes”.

B2: CD164: N94Q (protein)
parent chain: B1 parent chain
For the protein B2, the “other: support of virus infection” value (glycan lost) was “no change”. In data set [1], the expression_or_secretion entry is given as “no change”.

B3: CD164: N77Q (protein)
parent chain: B1 parent chain
In the case of B3, the “other: support of virus infection” value (glycan lost) is “no change”. In addition, the expression_or_secretion result in data set [1] is “no change”.

B4: CD164: N104Q (protein)
parent chain: B1 parent chain
As for B4, the “other: support of virus infection” value (glycan lost) is reported as “decreases”. Besides, the expression_or_secretion entry in data set [1] is reported as “no change”.

B5: CD164: N72Q (protein)
parent chain: B1 parent chain
Take B5: under “glycan lost”, the “other: support of virus infection” value was “no change”. For the same protein, the expression_or_secretion entry in data set [1] was “no change”.

B6: rat CD164 (rCD164): T102N rCD164 (protein)
parent chain: MSGASRGLFWAATCLAALCLSAAQSNSSASPNVTDPPTTTSKVVPTTLTTTKPPETCESFNSCVSCVNATLTNNITCVWLDCHEANKTYCSSELVSNCTQKTSTDSCSVIPTTPVPTNSTAKPTTRPSSPTPTPSVVTSAGATNTTVTPTSQPERKSTFDAASFIGGIVLVLGVQAVIFFLYKFCKSKERNYHTL
For B6, where the note is “glycan gained”, the “other: support of virus infection” value is “increases”.
